Measured values taken from US6514698.
Where two headings read alike, the source gives them in different places.

Columns and labels:
[1] = system: M.CviRI DNA methyltransferase
[2] = molecular target: T1, M.BamHI DNA methyltransferase (UniProt P23941)
T1 sequence: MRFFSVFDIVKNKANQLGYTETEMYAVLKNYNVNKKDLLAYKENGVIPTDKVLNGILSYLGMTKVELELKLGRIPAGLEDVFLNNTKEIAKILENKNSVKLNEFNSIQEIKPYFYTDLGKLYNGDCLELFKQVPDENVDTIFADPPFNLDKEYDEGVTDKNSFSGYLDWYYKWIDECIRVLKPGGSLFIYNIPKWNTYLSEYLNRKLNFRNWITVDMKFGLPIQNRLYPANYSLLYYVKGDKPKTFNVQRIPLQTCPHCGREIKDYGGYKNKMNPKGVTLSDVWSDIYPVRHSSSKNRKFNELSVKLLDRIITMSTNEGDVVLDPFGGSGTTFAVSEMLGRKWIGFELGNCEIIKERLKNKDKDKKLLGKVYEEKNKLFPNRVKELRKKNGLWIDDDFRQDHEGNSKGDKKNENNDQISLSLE

[3] = molecular target: T2, M.EcoRI DNA methyltransferase (UniProt P00472)
T2 sequence: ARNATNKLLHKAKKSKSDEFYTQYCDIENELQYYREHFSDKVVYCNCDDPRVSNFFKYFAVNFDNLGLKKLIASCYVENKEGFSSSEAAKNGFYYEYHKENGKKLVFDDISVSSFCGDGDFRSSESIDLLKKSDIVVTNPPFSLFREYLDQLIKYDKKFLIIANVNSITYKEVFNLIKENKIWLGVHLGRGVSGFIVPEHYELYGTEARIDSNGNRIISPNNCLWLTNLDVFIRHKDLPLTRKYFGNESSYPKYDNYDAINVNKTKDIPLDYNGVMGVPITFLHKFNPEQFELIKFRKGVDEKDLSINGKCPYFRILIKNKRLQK

[4] = molecular target: M.HaeIII DNA methyltransferase (UniProt P20589); conditions: background 615
[5] = 3H-methyl-SAM, 23 C, 5 mM EDTA, no MTase 574

GGTGGGAGAAGAAGATAAAAAGTAACATCTTTCTGCCTTCCAGATGATTCGAAGAATTTCTCCATCCAAGTGCGGCAGGTGGAGGATTGCCCTGTGGACATCTACTACTTGATGGACCTGTCTTACTCCATGCCGGATGATCTGTGGAGCATCCAGAACCTGGGTACCAAGCTGGCCACCCAGATGCGAAAGCTCACCAGTAACCTGCGGATTGGCTTCGGGGCATTTGTGGACAAGCCTGTGTCACCATACATGTATATCTCCCCACCAGAGGCCCTCGAAAACCCCTGCTATGAGTAAGTCCCTCCTCCAGACGCCAGGACAGCATCCTTTGCCCAGGAAGGTCCAAGTCCTGGTTCCTA (double strand) [GPIIIa Yuka/a 362 bp amplicon]
activity ([1]; background 472): 506 cpm

GGTGGGAGAAGAAGATAAAAAGTAACATCTTTCTGCCTTCCAGATGATTCGAAGAATTTCTCCATCCAAGTGCGGCAGGTGGAGGATTGCCCTGTGGACATCTACTACTTGATGGACCTGTCTTACTCCATGCCGGATGATCTGTGGAGCATCCAGAACCTGGGTACCAAGCTGGCCACCCAGATGCGAAAGCTCACCAGTAACCTGCGGATTGGCTTCGGGGCATTTGTGGACAAGCCTGTGTCACCATACATGTATATCTCCCCACCAGAGGCCCTCGAAAACCCCTGCTATGAGTAAGTCCCTCCTCCAGACGCCAGGACAGCATCCTTTGCCCAGGAAGGTCCAAGTCCTGGTTCCTA (double strand) [GPIIIa Yukb/b 362 bp amplicon]
activity ([1]; 3H-methyl-SAM, 23 C, 5 mM EDTA, background 501): 12200 cpm

pBluescript 191 bp amplicon predigested with BamHI
activity ([2]; site cleaved, background 661): 999 cpm | activity ([3]; background 661): 32800 cpm

pBluescript 191 bp amplicon predigested with EcoRI
activity ([2]; background 750, nearby frayed EcoRI end interferes): 1310 cpm | activity ([3]; site cleaved, background 750): 770 cpm

pBluescript SK+ polylinker 191 bp amplicon
activity [2, 5]: 69700 cpm | activity [3, 5]: 85000 cpm

pUC19
activity ([1]; background 615): 118000 cpm | activity [4]: 26200 cpm
